Results on eight molecules are retold here after US20250340632A1 (OSE IMMUNOTHERAPEUTICS, published 2025).

Where two headings read alike, the source gives them in different places.

In assay [1] the target is human SIRPg protein at the surface of cells (human T lymphocyte Jurkat cell line; T cells in PBMC) (human) (UniProt Q9P1W8). The experiment in a line: cytofluorometry (MFI) on human Jurkat cells, ED50.
The target is the same in assay [2]. The experiment in a line: cytofluorometry on Jurkat cells, % of positive cells (not the MFI readout of Table 5).
Assay [3] deals with T1, recombinant human SIRPa protein with His Tag (#11612-H08H, Sino Biological) (human, UniProt P78324 31-370).
T1 construct: Bought protein; also called human SIRPa His; SIRPa-His
The experiment in a line: ELISA on immobilized SIRPa, ED50.

The target in assay [4] is human SIRPa on SIRPa positive U937 human monocyte cell line (human) (UniProt P78324). The experiment in a line: binding to U937 cells expressing SIRPa, ED50.
The target of assay [5] is T2, recombinant human SIRPg protein with His Tag (#11828-H08H, Sino Biological) (human, UniProt Q9P1W8 29-360, biotinylated in the ELISA binding assay (sites not given)).
T2 construct: Bought protein; also called human SIRPg His; SIRPg-His
Nature of the assay: SIRPg binding ELISA, DO 450 nm (legend: immobilized SIRPg-His at 1 µg/ml; method 1.4: captured antibody, biotinylated SIRPg).

The target of assay [6] is T2, recombinant human SIRPg protein with …. Described as above. The source holds these as a separate data set.
Assay [7] concerns the target T1, recombinant human SIRPa protein with …. Nature of the assay: competition ELISA on immobilized SIRPa-His against biotinylated CD47-Fc at 3 µg/ml, streptavidin-peroxidase detection [lower graph].
For assay [8], the target named is T3, human SIRPg protein at the surface of cells (human T lymphocyte Jurkat cell line; T cells in PBMC) (human, UniProt Q9P1W8 29-387).
T3 construct: whole, on cells; also called SIRPg on Jurkat cells
The experiment in a line: cytofluorometry (MFI) on human Jurkat cells, ED50. How it is done:
To measure binding of mouse anti-hSIRPg on human cell lines, cells were first washed in cold-PSE (Phosphate Buffer Saline with 2% of heat-inactivated bovine serum, 2 mM EDTA), blocked for 30 min at room temperature with a mix of 50-fold diluted human Fc-block (#564220, BD Pharmingen) and 20-fold diluted/heat-inactivated human serum (SAB, # H4522-100, Sigma Aldrich) and then incubated for 10 min on ice to slow the cell metabolism. Antibodies in range were incubated for 30 min on ice, and cells were washed with cold-PSE before staining for 30 min on ice with an Alexa 647-labelled goat anti-mouse IgG at 5 μg/ml (#A21236; Fisher Scientific, Illkirch, France). Samples were analyzed on CytoFlex cytofluorometer (Beckman Coulter France, Villepinte).

As to “OX119 antibody (SantaCruz reference sc-53114)”, the EC50 in assay [1] was found to be 3.88 µg/mL. The EC50 (read off the curve) in assay [2] came to 0.2 µg/mL.
The corresponding values for “LSB2.20 antibody (Biolegend, reference 336602)” are 6.97 µg/mL and 0.2 µg/mL.

B1: Kwar23 antibody (antibody, V domains shown)
VH: EVQLQQSGAELVKPGASVKLSCTASGFNIKDYYIHWVQQRTEQGLEWIGRIDPEDGETKYAPKFQDKATITADTSSNTAYLHLSSLTSEDTAVYYCARWGAYWGQGTLVTVSS
VL: QIVLTQSPAIMSASPGEKVTLTCSASSSVSSSYLYWYQQKPGSSPKLWIYSTSNLASGVPARFSGSGSGTSYSLTISSMEAEDAASYFCHQWSSYPRTFGAGTKLELK
Regarding B1, the EC50 in assay [3] came out at 0.00469 µg/mL; in assay [4] it was 0.0719 µg/mL. Further, the “EC50 (read off the curve)” value in assay [5] is roughly 0.01 µg/mL; in assay [6], roughly 0.006 µg/mL. The “IC50 (read off the curve)” value in assay [7] was roughly 0.7 µg/mL.

B2: 26F10 recombinant chimeric anti-SIRPg antibody (antibody, human IgG4 S228P, kappa, V domains shown)
VH: EVQLQQSGTELVRSGASVKLSCTTSGFNIKDYYMHWVKQRPEQGLEWIGWIDPENGDTEYAPKFQGKATMTADTSSNTAYLQLSSLTSEDTAVYYCNAYDGYYGAMDYWGQGTSVTVSS
VL: DVVMPQTPLSLPVSLGDQASISCRSSQSLVHSNGNTYLHWYLQKPGQSPKLLIYKVSNRFSGVPDRFSGSGSGTDFTLKISRVEAEDLGVYFCSQNTHVPLTFGAGTKLELKR
notes: Mouse VH/VL on human IgG4 (S228P) and human CL kappa
The molecule B2 had an EC50 in assay [8] of 0.156 µg/mL. For the same molecule, the “EC50 (read off the curve)” value in assay [5] was roughly 0.02 µg/mL.

B3: 2H9 recombinant chimeric anti-SIRPg antibody (antibody, human IgG4 S228P, kappa, V domains shown)
VH: DVQLVESGGGLVQPGGSRKLSCAASGFTFSSFGMHWVRQAPEKGLEWVAYISSGSTTIYYADTVKGRFTISRDNPKNTLFLQMTSLRSEDTAMYFCARWTVVTNCFDYWGQGTTLTVSS
VL: QIVLTQSPALMSASPGEKVTMTCSASSSISSMYWYQQKPRSSPKPWIYLTSNLASGVPARFSGSGSGTSYSLTISSMEAEDAATYYCQQWSSNLTFGAGTKLELKR
notes: Mouse VH/VL on human IgG4 (S228P)
B3: the EC50 in assay [8] came out at 0.426 µg/mL.

B4: 11B5 recombinant chimeric anti-SIRPg antibody (antibody, human IgG4 S228P, kappa, V domains shown)
VH: EVQLVESGGDLVKPGGSLKLSCAASGFAFSDYYMYWVRQTPEKRLEWVATISDDGIYTYYPDSVKGRFTISRDNAKNNLFLQMSSLKSEDTAMYYCARGGYRDYYAMDYWGQGTSVTVSS
VL: DIQMTQSPASLSASVGETVTITCRASENIYSYLAWYQQKQGKSPQLLVYNGITLAEGVPSRFSGSGSGTQFSLKINSLQPEDFGDYYCQHHYGSPRTFGGGTTLEIKR
notes: as for B2
As to B4, the response in assay [8] was half-maximal at 0.195 µg/mL (EC50). The “EC50 (read off the curve)” value in assay [5] is roughly 0.007 µg/mL; in assay [6], roughly 0.006 µg/mL.

B5: 13F7 recombinant chimeric anti-SIRPg antibody (antibody, human IgG4 S228P, kappa, V domains shown)
VH: QVQLQQSGAELVRPGVSVKVSCKGSGYTFTDYAMHWVKQSHPKSLEWIGVIGTYYGDAYYNQNFKGKATMTVDKSSSTAYMELARLTSEDSAIYYCARRAGTSDWFAYWGQGTLVTVSA
VL: NIVLTQSPASLAVSLGQRATISCRASESVDSYGNSFMHWYQQKPGQPPKLLIYRASNLESGIPARFSGSGSRTDFTLTINPVEADDVATYYCQQSNEDPPTFGGGTKLEIKR
notes: as for B2
For the molecule B5, in assay [8], the EC50 was 0.281 µg/mL.

B6: 3H8 recombinant chimeric anti-SIRPg antibody (antibody, human IgG4 S228P, kappa, V domains shown)
VH: QIQLVQSGPELKKPGETVNISCMASGYSFTNYGMNWVKQAPGKGLKWMGWINTYTGEPTYADDFKGRFAFSLETSASTAYLQINNLKNEDMATYFCARQPYDYVPSFPYWGQGTLVTVSA
VL: DIVMTQSHKFMSTSVGDRVNITCKASQDVSTAVAWYQLKPGQSPKLLIYWASIRHTGVPDRFTGSGSGTDYTLTISSVQAEHLALYYCQQHYSTPWTFGGGTKLEIKR
notes: as for B2
As for B6, the half-maximal effective concentration (EC50) in assay [8] was 0.083 µg/mL.
